A short description of series [1]: dual luciferase Sox2 reporter. The conditions noted are these: glycan lost; control: untreated / control siRNA / scrambled control.
Series [2] can be described thus: western blot, S2VP10 and L3.6PL. The conditions noted are these: glycan lost; control: untreated cells. For orientation: A western blot detects proteins with antibodies after separation by electrophoresis.
Series [3] can be described thus: cycloheximide chase, western blot, endogenous Sox2. The note with it: glycan lost; control: untreated / scrambled control S2VP10.
A further series can be described thus: western blot, MIA-PACA2. The conditions noted are these: glycan lost; control: wild-type Sox2 overexpression.

Results on three substances are retold here after publication PMC6587167.

Regarding SOX2: OSMI, in series [1], the “other: transcriptional activity” value is on record as “decreases”. Also, the expression_or_secretion entry in series [2] is reported as “decreases”. The degradation_or_half_life entry in series [3] is given as “decreases”.

As for SOX2: siOGT, the “other: transcriptional activity” value in series [1] is reported as “decreases”.

Regarding SOX2: S246A, the expression_or_secretion entry in “western blot, MIA-PACA2” is “decreases”.
